Target: T1, CCK2R on AR42J cells (UniProt P30553 1-452, limits assumed)
T1 construct: whole, on cells
T1 sequence (looked up): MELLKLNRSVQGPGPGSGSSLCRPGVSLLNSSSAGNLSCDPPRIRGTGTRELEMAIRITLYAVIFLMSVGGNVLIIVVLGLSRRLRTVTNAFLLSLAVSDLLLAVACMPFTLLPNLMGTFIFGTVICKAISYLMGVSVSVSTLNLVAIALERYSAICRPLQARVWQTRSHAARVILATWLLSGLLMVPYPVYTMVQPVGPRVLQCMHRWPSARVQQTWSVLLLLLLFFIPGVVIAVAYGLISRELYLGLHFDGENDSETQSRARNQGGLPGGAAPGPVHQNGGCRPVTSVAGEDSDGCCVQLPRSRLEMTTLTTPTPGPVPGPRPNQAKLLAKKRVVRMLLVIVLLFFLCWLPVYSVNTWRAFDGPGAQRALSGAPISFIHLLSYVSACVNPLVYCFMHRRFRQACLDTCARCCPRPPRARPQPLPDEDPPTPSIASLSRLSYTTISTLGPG
Assay: displacement of ^125I-BH-CCK8 from AR42J cells
Description: For these experiments, AR42J cells were expanded in vitro in 175 mm flasks and grown to subconfluence in the growth medium containing 10% FCS. All binding assays were performed 36-48 h after seeding the cells in culture medium containing 10% FCS and 2% glutamine. Before the start of the binding assays, the cells in culture were washed with Hanks Balanced salt solution (HBSS) (GIBCO) containing 0.1% BSA and 25 mM HEPES (Sigma) and scraped with a rubber policeman into conical tissue culture polystyrene tubes. Cells were centrifuged at 500 g for 5 min and resuspended in HBSS at a concentration of 2×10⁶ cells/ml. Aliquots (˜1.0 ml) of suspended cells in polystyrene tubes were used in the binding assays. […] Binding assays were performed at 37° C. for 30-60 min at pH 6.5 (optimal for binding).
Non-specific binding was determined in the presence of 1000× excess of the non-labeled homologous peptide. At the end of the incubation, the cells were pelleted and washed twice with 1 ml of fresh ice-cold HBSS plus 0.1% BSA. Cell pellets were counted for ¹²⁵I in a gamma counter with ˜70% efficiency for ¹²⁵I.

binding result: no binding
B1: full-length recombinant human PG1-80 (rhPG) (ligand)
chain: SWKPRSQQPDAPLGTGANRDLELPWLEQQGPASHHRRQLGPQGPPHLVADPSKKQGPWLEEEEEAYGWMDFGRRSAEDEN
notes: Expressed in E. coli from pET32 as a thioredoxin fusion and purified; also called recombinant human progastrin; progastrin

Source: patent US20080187577A1 (University of Texas, published 2008)
